Laboratory results published in publication PMC7445246 (Signal Transduction and Targeted Therapy, 2020).

Key:
Details in all cases: both partners purified
recombinant human PD-L1 [1] = molecular target: T1, recombinant human PD-L1 (Homo sapiens, UniProt Q9NZQ7); assay: SPR; JS003 immobilized on the chip; serial dilutions of PD-L1 from 0.75 nM to 24 nM flowed through
T1 construct: PD-L1, human; the methods are probably in the supplementary material; In the internalization assay hPD-L1 was expressed on CHO-K1 cells; also called hPD-L1

recombinant human PD-L1 [2] = molecular target: T1, recombinant human PD-L1; assay: SPR; JS003 captured on biosensor; association with recombinant human PD-L1 at pH 7.4; dissociation followed at pH 5.5 (compared with pH 7.4)
recombinant human PD-L1 [3] = molecular target: T1, recombinant human PD-L1; assay: SPR; JS003 captured on biosensor; association with recombinant human PD-L1 at pH 7.4; dissociation followed at pH 6.0 (compared with pH 7.4)

T1 sequence (Q9NZQ7 19-290): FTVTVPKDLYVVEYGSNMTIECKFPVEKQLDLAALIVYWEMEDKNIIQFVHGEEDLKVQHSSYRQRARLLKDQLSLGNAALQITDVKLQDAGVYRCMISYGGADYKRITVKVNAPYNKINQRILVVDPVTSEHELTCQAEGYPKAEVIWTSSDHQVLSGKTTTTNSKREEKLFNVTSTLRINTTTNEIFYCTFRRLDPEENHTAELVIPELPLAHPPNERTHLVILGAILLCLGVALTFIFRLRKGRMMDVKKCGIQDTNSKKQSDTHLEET

Kd (recombinant human PD-L1 [1]): 288 pM
fold faster dissociation rate at pH 5.5 than at pH 7.4 (recombinant human PD-L1 [2]): 8.7 fold
fold faster dissociation rate at pH 6.0 than at pH 7.4 (recombinant human PD-L1 [3]): 3.4 fold
B1: JS003 (antibody, V domains shown)
VH: QGQLQESGPSLVKPSQTLSLTCTVSGDSITRGYWNWIRKHPGKGLEYIGYISYTGSTYSNLSLKSRVTISRDTSKNQYYLKLSSVTAADTAVYYCATSTGWLDPVDYWGQGTLVTVSS
VL: DIVMTQSPDSLAVSLGERATINCKASQNVDTSVAWFQQKPGQPPKALIYSASFRYSGVPDRFSGSGSGTDFTLTISSLQAEDVAVYFCQQYYGYPFTFGQGTKLEIK
notes: humanized PD-L1 specific mAb; Fab part as the heavy chain of m2; as the light chain of m2; Whole humanized mAb; Labelled with CypHer5E in the internalization assay only; also called JS003 antibodies
